Tested on: GFP expression in HEK 293 cells
Test: GFP fluorescence intensity of transfected HEK 293 cells
Type: cell-based
Details: ribozyme in 3′ UTR of EGFP; for reduction (inhibition/suppression) of GFP expression / fold reduction (suppression) of GFP expression: compared to pEGFP-C1 control
Description: Plasmid constructs: oligonucleotides containing wild type or mutant twister ribozyme sequences, either from Nasonia Vitripennis (wasp) or from environmental samples, flanked by BsrGI and MfeI sites, were synthesized (IDT). The synthesized oligonucleotides (“oligos”) were digested with BsrGI and MfeI and cloned into pEGFP-C1 (Clontech) digested with the compatible restriction enzymes. The sequences of the constructed vectors were verified by DNA sequencing (Genewiz).
Transfection and measurement of GFP fluorescence: 3.5×10^4 HEK 293 cells were plated in a 96-well flat bottom plate the day before transfection. Plasmid DNA (500 ng) was added to a tube or a 96-well U-bottom plate. Separately, TransIT-293 reagent (Mirus; 1.4 μl) was added to 50 μl Opti-mem I media (Life Technologies), and allowed to sit for 5 minutes at room temperature (“RT”). Then, 50 μl of this diluted transfection reagent was added to the DNA, mixed, and incubated at RT for 20 min. Finally, 7 μl of this solution was added to a well of cells in a 96-well plate. […] GFP fluorescence intensity was measured by Tecan plate reader, using Excitation wavelength at 484 nm, Emission wavelength at 510 nm and Excitation bandwidth at 5 nm. The GFP fluorescence intensity was expressed as the value generated by GFP constructs subtracted by the value generated by LacZ construct.
Measurement of GFP fluorescence intensity was performed as described in Example 1.

Molecule | effect on GFP expression (in words) | reduction (inhibition/suppression) of GFP expression | fold reduction (suppression) of GFP expression | further results
es-twister: Twister ribozyme sequence from environmental sample cloned into the 3′ UTR in pEGFP-C1 vector (nucleic acid, misc_feature 1..217 es-twister in pEGFPC1) DNA: GTGACCGCCGCCGGGATCACTCTCGGCATGGACGAGCTGTACAAGTAAACCGCGGCAATAAAGCGGTTACAAGCCCGCAAAAATAGCAGAGTAATGTCGCGATAGCGCGGCATTAATGCAGCTTTATTGGCGGCCGCCATACCACATTTGTAGAGGTTTTACTTGCTTTAAAAAACCTCCCACACCTCCCCCTGAACCTGAAACATAAAATGAATGC | significantly reduced target gene expression | about 50% |  | 
GFP_wasp_no Sac 0HP: GFP wasp-twister construct with SacII sequence at 5′ end of twister deleted (nucleic acid, misc_feature 1..202 wasp_no Sac 0HP in pEGFP-C1) DNA: GTGACCGCCGCCGGGATCACTCTCGGCATGGACGAGCTGTACAAGTAAACTTGTAATGCGGCCGTGTAAATAATTTACACGTCGGTCTCAAGCCCGATAAACGCAGAGAGCAAGGCGGCCGCCATACCACATTTGTAGAGGTTTTACTTGCTTTAAAAAACCTCCCACACCTCCCCCTGAACCTGAAACATAAAATGAATGC |  |  | 68 fold | 
GFP_wasp_no Sac 3HP: GFP wasp-twister construct with SacII site replaced by CGC creating 3 base pair stem (3HP) at P1 stem (nucleic acid, misc_feature 1..205 wasp_no Sac 3HP in pEGFP-C1, GFP wasp-twister construct with SacII site replaced by CGC creating 3 base pair stem (3HP) at P1 stem) DNA: GTGACCGCCGCCGGGATCACTCTCGGCATGGACGAGCTGTACAAGTAAACGCCTTGTAATGCGGCCGTGTAAATAATTTACACGTCGGTCTCAAGCCCGATAAACGCAGAGAGCAAGGCGGCCGCCATACCACATTTGTAGAGGTTTTACTTGCTTTAAAAAACCTCCCACACCTCCCCCTGAACCTGAAACATAAAATGAATGC |  |  | 104 fold | 
wasp-twister: Twister ribozyme sequence from N. vitripennis cloned into the 3′ UTR in pEGFP-C1 vector (nucleic acid, misc_feature 1..208 wasp-twister in pEGFP-C1) DNA: GTGACCGCCGCCGGGATCACTCTCGGCATGGACGAGCTGTACAAGTAAACCGCGGCTTGTAATGCGGCCGTGTAAATAATTTACACGTCGGTCTCAAGCCCGATAAACGCAGAGAGCAAGGCGGCCGCCATACCACATTTGTAGAGGTTTTACTTGCTTTAAAAAACCTCCCACACCTCCCCCTGAACCTGAAACATAAAATGAATGC | reduced expression of GFP | 97% | 36 fold | fold reduction (suppression) of GFP expression (listed as GFP-twister): 37 fold; fold reduction (suppression) of GFP expression (listed as Wasp-twister): ~36 fold; reduction (inhibition/suppression) of GFP expression (listed as Wasp-twister): approximately 97%; fold reduction (suppression) of GFP expression (listed as wild type twister ribozyme): 44 fold
wasp-twister Mutant: Cleavage-incapable mutant wasp twister, A6 replaced with G, in 3′ UTR of pEGFP-C1 (nucleic acid, misc_feature 1..208 wasp-twister-mut in pEGFP-C1, Cleavage-incapable mutant wasp twister, A6 replaced with G, in 3′ UTR of pEGFP-C1) DNA: GTGACCGCCGCCGGGATCACTCTCGGCATGGACGAGCTGTACAAGTAAACCGCGGCTTGTGATGCGGCCGTGTAAATAATTTACACGTCGGTCTCAAGCCCGATAAACGCAGAGAGCAAGGCGGCCGCCATACCACATTTGTAGAGGTTTTACTTGCTTTAAAAAACCTCCCACACCTCCCCCTGAACCTGAAACATAAAATGAATGC | did not cause a reduction in GFP expression |  |  | effect on GFP expression (in words) (listed as A6G mutation): completely abolished the suppression in GFP expression

— patent US12359199B2, “Regulation of gene expression via aptamer-mediated control of self-cleaving ribozymes” (MEIRAGTX UK II LIMITED, priority 2016, dated 2025)
